Laboratory results published in patent publication US6670161B1, “Compositions and methods for template-dependent enzymatic synthesis of nucleic acid” (The Board of Trustees of the Leland Stanford Jr. University, priority 1991, dated 2003).
Read-outs that look alike come from different tables or passages of the source.

Key:
[1] = system: lacZ α-complementing gene in M13mp2 DNA; assay: DNA synthetic fidelity, minus-one frame-shift reversion assay; format: biochemical
Experimental: (§1) DNA Synthetic Fidelity. The fidelity of the single catalytic subunit and the four subunit polymerase α/primase was measured and compared. Three methods were used to measure a single round of gap filling synthesis within the lacZ α-complementing gene in M13mp2 DNA. See T. A. Kunkel et al. Mol. Cell. Biol. 9:4447 (1989). In all three assays, a gapped, double-stranded M13mp2 DNA is constructed which contains a single-stranded gap as the mutation target. The three assays are: (A) forward mutation assay, (B) opal codon reversion assay, and (C) assay for −1 base frame-shift.
(§2) The DNA synthetic mutational frequency and the error rate of the two forms of DNA polymerase α measured by these three methods are summarized in Table III. […] The DNA synthetic fidelity values obtained are also in agreement with the values previously determined for the four subunit polymerase α.

[2] = system: lacZ α-complementing gene in M13mp2 DNA; assay: DNA synthetic fidelity, forward mutation assay; format: biochemical; details: light blue and colorless plaques
Experimental: as §1, §2

[3] = system: matched 24 mer or mismatched 29 mer annealed to M13mp18 single stranded DNA; assay: Proofreading exonuclease assay on primed M13mp18; format: biochemical; details: up to 30 minutes at 37° C.
Experimental: Proofreading exonuclease activity of the recombinant single subunit poymerase α was assayed with a singly primed M13mp18 template (SEQ ID NO:5), primed either with a matched 24 mer (SEQ ID NO:4) (FIG. 8B) or a mismatched 29 mer (SEQ ID NO:2) (FIG. 8A), each ^32P-labeled at the 5′ end by T4 polynucleotide kinase. The mismatched 29 mer (SEQ ID NO:2) contains 9 mismatched T's on the 3′ terminus. Correct proofreading of this 29 mer (SEQ ID NO:2) annealed to M13mp18 (SEQ ID NO:3) would produce a 20 mer in the absence of deoxynucleotide triphosphates (dNTPs).
To perform the assay, two oligonucleotides, the universal primer, a 24 mer (matched primer) and RD29 mer (mismatched primer), were 5′-end labeled with ^32P-ATP and annealed to M13mp18 single stranded template. 0.1 pmole of this primed M13 was incubated in 20 mM Tris.HCl, pH 7.5, 10 mM MgCl2, 20 mM KCl and 2 mM dithiothreitol at 37° C. in the presence of polymerase in a final volume of 12 μl. Aliquots of 3 μl each were removed at 0, 2.5, 10 and 30 minutes into an equal volume of deionized formamide containing 1 mM EDTA, 0.1% xylene cyanol and 0.1% bromophenol blue and placed on ice. After heating at 95° C. for 5 minutes, one-half of the sample was loaded onto an 18% polyacrylamide, 7 M urea, Tris-borate-EDTA gel. […]

[4] = Thermostability: preincubation at 37° C. before assaying polymerase activity; format: physicochemical
Experimental: Thermosensitivity. The thermostability of the two forms of polymerase α was also compared; this was done by preincubation at 37° C. for various times before assaying polymerase activity. […] (data not shown). These decreases in polymerase activity was not due to proteolysis of the polymerase protein.

[5] = system: optimally gapped salmon sperm DNA, dNTP's; assay: Kinetic parameters of DNA polymerase α on gapped DNA (Lineweaver-Burk); format: biochemical; details: for Km: gapped salmon sperm DNA
Excerpt: Characterization of Affinity. The four subunit-DNA polymerase α/primase complex was purified from human KB cells as described T. Wang et al., J. Biol. Chem. 259:1854 (1984) and used for comparison to the single polypeptide recombinant polymerase α for their respective affinities for dNTP, primer-terminus, and gapped DNA. Prior to the comparison, both the immunopurified recombinant single subunit-polymerase α and the four subunit-polymerase α/primase complex were stored in buffer containing 30% sucrose, 20% ethylene glycol, 50 mM Tris HCL, pH 8.6, 1 mM βME, 1 mM EDTA at −80° C. or stored on packed ice at 4° C.
(§3) The standard assay for DNA polymerase α with gapped DNA was performed according to P. A. Fisher and D. Korn, J. Biol. Chem 252:6528 1977). Reactions were performed using optimally gapped salmon sperm DNA in 20 mM Tris.HCl, pH 8.0, 2 mM β-mercaptoethanol (“βME”), 200 μg/ml BSA, 10 mM MgCl2, 50 μM dNTP's with [α-^32P]dATP as the label. One unit of DNA polymerase is defined as the amount of polymerase that incorporates 1 nmole of labeled dNTP into acid-insoluble DNA at 37° C. in 60 min. […] All Kinetic parameters were calculated from Lineweaver-Burk plots by the method of least squares. Km was calculated of the basis of 3′-OH primer termini.
The rate of catalysis of these two forms was also measured. The Kcat values determined for the two forms of polymerase α are of a similar order of magnitude.

[6] = system: lacZ α-complementing gene in M13mp2 DNA; assay: DNA synthetic fidelity, base-substitution (opal codon) reversion assay; format: biochemical
Experimental: as §1, §2

oligo(dT)12: poly(dA)290 = assay: Km for primer terminus; format: biochemical; details: oligo(dT)12: poly(dA)290, 2 mM MgCl2, 50 μM dTTP
Experimental: as §3

B1: Single subunit recombinant Pol α: recombinant human DNA polymerase α catalytic polypeptide (180 kDa) immunopurified from AcHDPα infected Sf9 cells (protein)
chain: MAPVHGDDSLSDSGSFVSSRARREKKSKKGRQEALERLKKAKAGEKYKYEVEDFTGVYEEVDEEQYSKLVQARQDDDWIVDDDGIGYVEDGREIFDDDLEDDALDADEKGKDGKARNKDKRNVKKLAVTKPNNIKSMFIACAGKKTADKAVDLSKDGLLGDILQDLNTETPQITPPPVMILKKKRSIGASPNPFSVHTATAVPSGKIASPVSRKEPPLTPVPLKRAEFAGDDVQVESTEEEQESGAMEFEDGDFDEPMEVEEVDLEPMAAKAWDKESEPAEEVKQEADSGKGTVSYLGSFLPDVSCWDIDQEGDSSFSVQEVQVDSSHLPLVKGADEEQVFHFYWLDAYEDQYNQPGVVFLFGKVWIESAETHVSCCVMVKNIERTLYFLPREMKIDLNTGKETGTPISMKDVYEEFDEKIATKYKIMKFKSKPVEKNYAFEIPDVPEKSEYLEVKYSAEMPQLPQDLKGETFSHVFGTNTSSLELFLMNRKIKGPCWLEVKSPQLLNQPVSWCKVEAMALKPDLVNVIKDVSPPPLVVMAFSMKTMQNAKNHQNEIIAMAALVHHSFALDKAAPKPPFQSHFCVVSKPKDCIFPYAFKEVIEKKNVKVEVAATERTLLGFFLAKVHKIDPDIIVGHNIYGFELEVLLQRINVCKAPHWSKIGRLKRSNMPKLGGRSGFGERNATCGRMICDVEISAKELIRCKSYHLSELVQQILKTERVVIPMENIQNMYSESSQLLYLLEHTWKDAKFILQIMCELNVLPLALQITNIAGNIMSRTLMGGRSERNEFLLLHAFYENNYIVPDKQIFRKPQQKLGDEDEEIDGDTNKYKKGRKKAAYAGGLVLDPKVGFYDKFILLLDFNSLYPSIIQEFNICFTTVQRVASEAQKVTEDGEQEQIPELPDPSLEMGILPREIRKLVERRKQVKQLMKQQDLNPDLILQYDIRQKALKLTANSMYGCLGFSYSRFYAKPLAALVTYKGREILMHTKEMVQKMNLEVIYGDTDSIMINTNSTNLEEVFKLGNKVKSEVNKLYKLLEIDIDGVFKSLLLLKKKKYAALVVEPTSDGNYVTKQELKGLDIVRRDWCDLAKDTGNFVIGQILSDQSRDTIVENIQKRLIEIGENVLNGSVPVSQFEINKALTKDPQDYPDKKSLPHVHVALWINSQGGRKVKAGDTVSYVICQDGSNLTASQRAYAPEQLQKQDNLTIDTQYYLAQQIHPVVARICEPIDGIDAVLIATWLGLDPTQFRVHHYHKDEENDALLGGPAQLTDEEKYRDCERFKCPCPTCGTENIYDNVFDGSGTDMEPSLYRCSNIDCKASPLTFTVQLSNKLIMDIRRFIKKYYDGWLICEEPTCRNRTRHLPLQFSRTGPLCPACMKATLQPEYSDKSLYTQLCFYRYIFDAECALEKLTTDHEKDKLKKQFFTPKVLQDYRKLKNTAEQFLSRSGYSEVNLSKLFAGCAVKS
Error rate [1]: 1/1800 | Mutant frequency ([1]; blue plaques): 170 ×10^−5 | Mutant frequency [2]: 300 ×10^−4 | 3′-5′ exonuclease activity on matched and mismatched primer-template [3]: no apparent 3′-5′ exonuclease was detected | Thermostability, % activity after 30 min at 37° C. [4]: 68% | Kcat [5]: 1.6 s⁻¹ | Km ([5]; 10 mM MgCl2, pH 8.0, read-out: Km (dNTP)): 1.2 µM | Km ([5]; read-out: Km (DNA in nucleotide)): 190 µM | Error rate [6]: 1/4900 | Mutant frequency ([6]; blue plaques): 370 ×10^−6 | Km (oligo(dT)12: poly(dA)290): 0.4 µM
